From US5981720A, “Human salivary proteins and fragments thereof having alpha-glucosidase inhibitory activity” (priority 1997, dated 1999)
Residues, ends and D or L forms follow the SMILES beside them. No end group written: not given here. *: point of attachment. NH(β-GlcNAc) = CC(=O)N[C@@H]1[C@@H](O)[C@H](O)[C@@H](CO)O[C@H]1N*; acetylglucosamine = N-acetylglucosamine

Target: yeast alpha-glucosidase (Saccharomyces cerevisiae, UniProt P53341)
Assay type: biochemical
Protocol: The enzyme of alpha-glucosidase activity is according to the procedure as described by Sigma Chemical Company, St. Louis, Mo. Routinely, the enzyme reaction mixture contains 10 mM maltose and 50 ul of purified alpha-glucosidase or 0.02 units of yeast alpha-glucosidase in a final volume of 60 ul of 25 mM sodium acetate buffer, pH 5.6. The reaction mixture is incubated at 37° C. for 60 minutes, and the production of glucose is determined by the glucose oxidase reagent (Worthington Statzyme Glucose 500) in accordance with recommendation of Worthington Biochemical Corporation.

Chain of yeast alpha-glucosidase (P53341 whole entry): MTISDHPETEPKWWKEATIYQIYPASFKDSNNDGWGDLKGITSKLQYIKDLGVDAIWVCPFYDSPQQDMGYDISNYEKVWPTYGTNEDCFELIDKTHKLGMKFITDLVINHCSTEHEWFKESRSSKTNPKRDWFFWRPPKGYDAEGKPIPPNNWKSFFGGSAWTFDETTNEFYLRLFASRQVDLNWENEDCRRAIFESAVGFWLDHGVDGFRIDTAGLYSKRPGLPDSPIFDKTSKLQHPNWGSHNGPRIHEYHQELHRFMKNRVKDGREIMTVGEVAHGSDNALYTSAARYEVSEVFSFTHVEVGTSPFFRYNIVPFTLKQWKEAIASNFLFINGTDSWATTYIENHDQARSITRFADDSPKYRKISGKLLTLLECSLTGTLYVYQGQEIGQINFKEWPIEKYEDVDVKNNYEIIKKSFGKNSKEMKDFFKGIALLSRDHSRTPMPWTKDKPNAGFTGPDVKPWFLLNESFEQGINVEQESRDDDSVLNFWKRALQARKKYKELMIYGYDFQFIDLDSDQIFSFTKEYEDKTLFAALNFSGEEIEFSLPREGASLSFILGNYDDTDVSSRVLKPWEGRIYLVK

CC(=O)N[C@@H]1[C@@H](O)[C@H](O)[C@@H](CO)O[C@H]1NC(=O)C[C@H](NC(=O)CNC(=O)CN)C(=O)N[C@@H](CCCCN)C(=O)O [synthetic glycopeptide, Gylcyl-glycl-(NB-2-(acetylamino)-deoxy-2-B-pyranosyl)-asparaginyl-lysine] (H-GGD(NH(β-GlcNAc))K-OH)
inhibitory effect on the alpha-glucosidase activity (10 ug of peptide, 50 mM acetate buffer pH 5.6, compared to control): about 90%

acetoacetate glycopeptide complex: reaction product of the putative glycopeptide with acetoacetate reagent (GGN(acetylglucosamine)K; also: reacted with acetoacetate reagent (glycine residue))
inhibitory effect on alpha-glucosidase activity (in words) (0.02 units of yeast alpha-glucosidase): loss of inhibitory effect of the glycopeptide itself but is able to stimulate the alpha-glucosidase activity

glycine-glycine-asparagine-pyridoxyl-lysine acetylglucosamine
increase in inhibitory effect on alpha-glucosidase (glycopeptide preincubated with pyridoxal 5-phosphate versus unmodified glycopeptide): 50%

glycopeptide: bioactive fragment from Lys-C digestion of CON-1: glycine-glycine-asparagine-lysine, asparagine glycosylated by acetylglucosamine (GGN(acetylglucosamine)K)
inhibition of alpha-glucosidase lost after N-acetylglucosaminidase treatment (compared to the nontreated glycopeptide): about 20%
change of inhibitory activity after removal of acetylglucosamine (in words) (incubation with N-acetylglucosaminidase): marked reduction in inhibitory activity
